Patent US20250042957A1 (Molecular Partners, published 2025)

B3: VEGF165 (ligand, UniProt P15692-4 27-191, looked up)
chain: APMAEGGGQNHHEVVKFMDVYQRSYCHPIETLVDIFQEYPDEIEYIFKPSCVPLMRCGGCCNDEGLECVPTEESNITMQIMRIKPHQGQHIGEMSFLQHNKCECRPKKDRARQENPCGPCSERRKHLFVQDPQTCKCSCKNTDSRCKARQLELNERTCRCDKPRR
modifications: biotinylated in the ELISA of Example 4 (site not stated)
notes: also called biotinylated VEGF165; soluble VEGF

Key:
VEGF165 [1] = target: B3; assay: cell-based or functional assay
scCD3εγ [2] = target: T1, scCD3εγ; assay: ELISA, biotinylated scCD3εγ on neutravidin plate, with against without 100 nM VEGF
T1 chain 1: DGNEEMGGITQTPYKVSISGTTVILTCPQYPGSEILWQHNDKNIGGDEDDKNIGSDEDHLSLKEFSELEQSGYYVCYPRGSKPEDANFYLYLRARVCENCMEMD
T1 chain 2: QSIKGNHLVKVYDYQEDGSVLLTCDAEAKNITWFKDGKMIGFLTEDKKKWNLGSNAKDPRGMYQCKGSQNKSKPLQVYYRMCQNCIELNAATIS
Description: (§1) The difference in binding of Switchdrug DARPins to scCD3εγ in presence and absence of VEGF was assessed. […] Said Switchdrug DARPins were mixed with a constant concentration of VEGF (100 nM) and tested for binding to scCD3εγ. […] The difference in EC50 of a construct in presence and absence of VEGF can be referred to as the “activation window”.
(§2) Switchdrug DARPins that were mixed with VEGF were titrated and pre-incubated for 1 day with VEGF in order to establish the thermodynamic equilibrium. These samples were loaded on the ELISA plate, incubated and washed, before the bound Switchdrug DARPins were detected as described above.

scCD3εγ [3] = target: T1, scCD3εγ; assay: ELISA: plate-bound biotinylated scCD3εγ, His-tagged construct titrated in presence of 100 nM soluble VEGF
Description: as §1, §2

VEGF165 [4] = target: B3; assay: ELISA: plate-bound biotinylated VEGF165, His-tagged construct titrated, no soluble VEGF, anti-His-HRP detection
Description: Then a titration of the Switchdrug DARPins was applied, incubated and washed. Detection of bound his-tagged constructs was done by anti-RGS(his)4 mAb HRP conjugate, and detected by TMB substrate.

[5] = target: T2, 2-in-1 DARPin 21 (SEQ ID NO: 90)
T2 chain: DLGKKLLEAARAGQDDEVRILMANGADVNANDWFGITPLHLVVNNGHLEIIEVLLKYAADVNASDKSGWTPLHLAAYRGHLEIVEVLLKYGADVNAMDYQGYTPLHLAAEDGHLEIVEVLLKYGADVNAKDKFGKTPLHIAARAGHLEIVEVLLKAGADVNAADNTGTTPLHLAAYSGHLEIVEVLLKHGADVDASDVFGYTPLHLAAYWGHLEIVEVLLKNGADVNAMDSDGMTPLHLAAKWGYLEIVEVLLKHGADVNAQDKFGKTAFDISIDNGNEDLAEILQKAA

[6] = target: T3, 2-in-1 DARPin 22 (SEQ ID NO: 91)
T3 chain: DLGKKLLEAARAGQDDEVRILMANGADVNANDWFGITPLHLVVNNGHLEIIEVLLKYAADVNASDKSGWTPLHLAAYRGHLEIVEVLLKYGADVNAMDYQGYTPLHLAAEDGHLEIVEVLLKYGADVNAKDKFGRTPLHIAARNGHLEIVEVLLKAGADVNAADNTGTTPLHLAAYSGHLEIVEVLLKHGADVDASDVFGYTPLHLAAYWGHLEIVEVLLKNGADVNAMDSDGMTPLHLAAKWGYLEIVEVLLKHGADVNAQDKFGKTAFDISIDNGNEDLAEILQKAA

Switchdrug DARPin 15-3 = target: T4, Switchdrug DARPin 15-3; assay: HTRF: 20 nM Switchdrug DARPin with titrated soluble VEGF; read-out is the construct's binding to 1 nM biotinylated scCD3εγ (release of the α-CD3 binder)
T4 construct: also called 2-in-1 DARPin15 in Format 3
T4 chain: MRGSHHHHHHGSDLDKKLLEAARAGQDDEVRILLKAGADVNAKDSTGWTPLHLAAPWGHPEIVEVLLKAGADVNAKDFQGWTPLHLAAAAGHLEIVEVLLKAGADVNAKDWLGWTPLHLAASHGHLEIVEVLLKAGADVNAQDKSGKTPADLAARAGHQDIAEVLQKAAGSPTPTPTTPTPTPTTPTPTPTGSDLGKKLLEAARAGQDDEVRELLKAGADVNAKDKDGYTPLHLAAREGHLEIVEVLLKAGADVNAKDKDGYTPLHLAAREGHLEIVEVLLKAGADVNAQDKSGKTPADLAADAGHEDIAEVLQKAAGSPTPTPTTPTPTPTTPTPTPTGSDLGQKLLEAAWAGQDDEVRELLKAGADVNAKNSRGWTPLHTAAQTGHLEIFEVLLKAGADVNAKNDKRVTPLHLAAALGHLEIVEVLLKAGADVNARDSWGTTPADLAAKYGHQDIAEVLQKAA
Description: (§3) Said Switchdrug DARPins (20 nM final concentration) were mixed with 1 nM (final concentration) scCD3εγ, 1:200 (final concentration) of anti-FLAG-d2 HTRF antibody-FRET acceptor conjugate (Cisbio) and 1:200 (final concentration) of anti-strep-Tb antibody FRET donor conjugate (Cisbio, France). […] The mix was added to a well of a 384-well plate and incubated for 90 minutes.

Switchdrug DARPin 17-3 [7] = target: T5, Switchdrug DARPin 17-3; assay: as above
T5 construct: also called 2-in-1 DARPin17 in Format 3
T5 chain: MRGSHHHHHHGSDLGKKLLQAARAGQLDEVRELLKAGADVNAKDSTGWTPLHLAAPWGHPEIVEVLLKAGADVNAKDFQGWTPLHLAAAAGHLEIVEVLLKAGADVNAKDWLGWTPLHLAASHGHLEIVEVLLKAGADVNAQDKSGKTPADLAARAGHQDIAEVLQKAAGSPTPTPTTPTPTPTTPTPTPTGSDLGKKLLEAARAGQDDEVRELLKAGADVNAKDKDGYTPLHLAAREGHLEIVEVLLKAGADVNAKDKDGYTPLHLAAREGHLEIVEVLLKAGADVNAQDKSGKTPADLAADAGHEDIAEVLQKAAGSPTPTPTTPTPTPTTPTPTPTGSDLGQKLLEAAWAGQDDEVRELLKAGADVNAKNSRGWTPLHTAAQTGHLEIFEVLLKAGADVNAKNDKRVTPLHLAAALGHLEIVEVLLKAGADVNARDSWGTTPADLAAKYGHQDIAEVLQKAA
Description: as §3

Switchdrug DARPin 18-3 [8] = target: T6, Switchdrug DARPin 18-3; assay: as above
T6 construct: also called 2-in-1 DARPin18 in Format 3
T6 chain: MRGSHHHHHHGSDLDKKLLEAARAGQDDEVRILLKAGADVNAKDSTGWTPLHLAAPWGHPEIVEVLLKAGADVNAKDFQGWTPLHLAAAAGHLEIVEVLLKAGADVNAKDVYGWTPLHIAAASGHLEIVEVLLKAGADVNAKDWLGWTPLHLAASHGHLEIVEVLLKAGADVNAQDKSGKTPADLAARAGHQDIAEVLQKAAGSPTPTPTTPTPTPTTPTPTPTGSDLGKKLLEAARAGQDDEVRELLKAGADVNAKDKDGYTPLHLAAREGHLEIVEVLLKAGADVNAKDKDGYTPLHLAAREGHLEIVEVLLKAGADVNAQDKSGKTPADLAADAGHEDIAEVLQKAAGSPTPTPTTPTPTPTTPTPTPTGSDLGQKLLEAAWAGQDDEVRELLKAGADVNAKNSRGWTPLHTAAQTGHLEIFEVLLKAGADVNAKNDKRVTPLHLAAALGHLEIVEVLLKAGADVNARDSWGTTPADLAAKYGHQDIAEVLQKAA
Description: as §3

Switchdrug DARPin 17-1 = target: T7, Switchdrug DARPin 17-1; assay: ELISA: 10 nM Switchdrug DARPin 17-1 pre-incubated with titrated soluble VEGF; read-out is the construct bound to plate-bound biotinylated scCD3εγ (release of the α-CD3 binder)
T7 construct: also called 2-in-1 DARPin17 in Format 1
T7 chain: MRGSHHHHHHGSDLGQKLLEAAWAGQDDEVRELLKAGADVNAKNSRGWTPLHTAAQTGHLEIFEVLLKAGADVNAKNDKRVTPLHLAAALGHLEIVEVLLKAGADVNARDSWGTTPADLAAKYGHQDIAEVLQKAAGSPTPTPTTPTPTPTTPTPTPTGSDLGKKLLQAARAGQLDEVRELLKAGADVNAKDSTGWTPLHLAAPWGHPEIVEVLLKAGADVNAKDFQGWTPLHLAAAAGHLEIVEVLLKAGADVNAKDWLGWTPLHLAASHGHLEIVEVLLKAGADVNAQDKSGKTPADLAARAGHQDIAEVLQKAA
Description: as §2

Switchdrug DARPin 17-3 [9] = target: T5, Switchdrug DARPin 17-3; assay: ELISA: 10 nM Switchdrug DARPin 17-3 pre-incubated with titrated soluble VEGF; read-out is the construct bound to plate-bound biotinylated scCD3εγ (release of the α-CD3 binder)
Description: as §2

Switchdrug DARPin 18-3 [10] = target: T6, Switchdrug DARPin 18-3; assay: ELISA: 100 nM Switchdrug DARPin 18-3 pre-incubated with titrated soluble VEGF; read-out is the construct bound to plate-bound biotinylated scCD3εγ (release of the α-CD3 binder)
Description: as §2

VEGF165 [11] = target: B3; assay: SPR (ProteOn), VEGF165 immobilized, multi-trace
[12] = target: T8, CD3-specific binding domain (SEQ ID NO: 3) (biotinylated when used as immobilized SPR ligand (site not stated)); assay: SPR (ProteOn), biotinylated CD3-specific binding domain immobilized, multi-trace 50-0.195 nM, 25 C
T8 construct: also called α-CD3 DARPin
T8 chain: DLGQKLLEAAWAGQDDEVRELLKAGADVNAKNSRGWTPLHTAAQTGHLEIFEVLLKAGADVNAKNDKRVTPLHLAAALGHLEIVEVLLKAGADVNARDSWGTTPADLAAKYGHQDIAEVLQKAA

B1: Switchdrug DARPin 17-B (designed binder)
chain: MRGSHHHHHHGSDLGKKLLQAARAGQLDEVRELLKAGADVNAKDSTGWTPLHLAAPWGHPEIVEVLLKAGADVNAKDFQGWTPLHLAAAAGHLEIVEVLLKAGADVNAKDWLGWTPLHLAASHGHLEIVEVLLKAGADVNAQDKSGKTPADLAARAGHQDIAEVLQKAAGSPTPTPTTPTPTPTTPTPTPTGSDLGKKLLQAARAGQLDEVRELLKAGADVNAKDQYGRTPLHLAAIKGHLEIVEVLLKAGADVNAKDSLGYTPLHLAAVEGPLEIVEVLLKAGADVNAKDAYGQTPLHIAAAWGHLEIVEVLLKAVADVNAQDKSGKTPADLAARAGHQDIAEVLQKAAGSPTPTPTTPTPTPTTPTPTPTGSDLGQKLLEAAWAGQDDEVRELLKAGADVNAKNSRGWTPLHTAAQTGHLEIFEVLLKAGADVNAKNDKRVTPLHLAAALGHLEIVEVLLKAGADVNARDSWGTTPADLAAKYGHQDIAEVLQKAA
notes: also called 2-in-1 DARPin17 in Format B
T-cell activation (CD69+ cells of CD8+ T cells, Molm-13 target cells): activation window (VEGF165 [1]): 75 fold | activation window (difference in EC50 in presence and absence of VEGF) (scCD3εγ [2]): ~178 fold | EC50 (read off the curve) (scCD3εγ [3]): ~2 nM | EC50 (read off the curve) (VEGF165 [4]): ~30 nM

B2: Aminoglycoside phosphotransferase (APH) (enzyme)
chain: MRGSHHHHHHGSAKMRISPELKKLIEKYRSVKDTEGMSPAKVYKLVGENENLYLKMTDSRYKGTTYDVEREKDMMLWLEGKLPVPKVLHFERHDGWSNLLMSEADGVLCSEEYEDEQSPEKIIELYAECIRLFHSIDISDCPYTNSLDSRLAELDYLLNNDLADVDSENWEEDTPFKDPRELYDFLKTEKPEEELVFSHGDLGDSNIFVKDGKVSGFIDLGRSGRADKWYDIAFCVRSIREDIGEEQYVELFFDLLGIKPDWEKIKYYILLDELF
IC50 [5]: 55 nM | IC50 [6]: 47 nM

B3
EC50 (read off the curve) (Switchdrug DARPin 15-3): ~30 nM | EC50 (read off the curve) (Switchdrug DARPin 17-3 [7]): ~30 nM | EC50 (read off the curve) (Switchdrug DARPin 18-3 [8]): ~70 nM | EC50 (read off the curve) (Switchdrug DARPin 17-1): ~4 nM | EC50 (read off the curve) (Switchdrug DARPin 17-3 [9]): ~7 nM | EC50 (read off the curve) (Switchdrug DARPin 18-3 [10]): ~40 nM

B4: α-CD3 DARPin-blocker (SEQ ID NO: 2) (designed binder)
chain: DLGKKLLQAARAGQLDEVRELLKAGADVNAKDAKGLTPLHLAAYHGHLEIVEVLLKAGADVNAKDVYGWTPLHIAAASGHLEIVEVLLKAGADVNAKDWLGWTPLHLAASHGHLEIVEVLLKAGADVNAQDKSGKTPADLAARAGHQDIAEVLQKAA
binding result (VEGF165 [11]): no binding (tested: 50 nM (highest concentration run)) | Kd [12]: 0.11 nM | koff [12]: 8.92e-05 s⁻¹ | kon [12]: 826000 M⁻¹ s⁻¹
